# Measurements published in patent US7547662 (KIMBERLY CLARK WORLDWIDE, dated 2009).
# Residue numbers refer to the chain shown, from its start.
# B1: Loop i variant from computer search (parental binding agent with loop i ITAVCHK, SEQ ID NO:35) (designed binder)
# chain: MDVQLQASGGGSVQAGGSLRLSCAASITAVCHKCAGWFRQAPGKEREGVAAINAGAAGTSYADSVKGRFTISQLAGAANVYLLMNSLEPEDTAIYYCAAGHAGAAGAATCGHGLSTAGAAGAPWGQGTQVTVSS
# notes: The protein was then made, expressed and purified, and tested by ITC; also called Loop i Variant Computer; computer-generated loop i variant; not shown: C-terminal hexa-histidine tag added by the vector construct
# B2: Parental binding agent (generic binding agent, SEQ ID NO:4, Ala/Gly loops) (designed binder)
# chain: B1 chain with I27A, T28G, V30A, C31G, H32A, K33A
# notes: Camelid VHH-derived beta barrel scaffold, all five loops Ala/Gly; Expressed in E. coli as a monomeric C-terminal His-Tag fusion; not shown: C-terminal hexa-histidine tag added by the vector construct
# B3: Loop i variant from library screening (parental binding agent with loop i RYLRYPS, SEQ ID NO:33) (designed binder)
# chain: B1 chain with I27R, T28Y, A29L, V30R, C31Y, H32P, K33S
# notes: The clone came from a library in which loops i to v were randomised; also called Loop i variant Screening; Biological Screen; not shown: C-terminal hexa-histidine tag added by the vector construct
# Experiments:
# [1] = molecular target: T1, Bovine trypsin (Sigma Chemical Co.) (bovine, UniProt P00760 24-246); test: ITC, binding agent injected into bovine trypsin, 293 K
# T1 construct: Unlabelled in ITC; Oregon Green labelled in the library screening assay; also called bovine pancreatic trypsin
# Experimental: (§1) Isothermal titration calorimetry (ITC) was performed with a VP-ITC instrument from MicroCal, Inc. Titrations were carried out by injecting 5 µL of a binding agent (at concentration ranges from 0.5 mM to 1.0 mM) into the 1.4 mL stirred reaction cell. Bovine trypsin (Sigma Chemical Co.) ranged in concentration from 10 to 30 μM in the cell. Both the inhibitor and the enzyme were in 20 mM sodium cacodylate (pH 6.9), 40 mM NaCl. Titrations were conducted at 20° C. Typical experimental conditions for the titrations were a 10 second injection period followed by a 240 second delay between injections for a total of 40 injections. Blank titrations of binding agent into buffer were performed in order to correct for heats of dilution and mixing.
# (§2) The ability of three binding agents (SEQ ID NO:4, SEQ ID NO:33 and 35) was tested to ascertain whether they could effectively bind bovine trypsin. Binding was measured by isothermal titration calorimetry (ITC).
# Figure 9: FIG. 9 is a graph illustrating the binding between the computer-generated loop i variant and bovine pancreatic trypsin as analyzed by ITC analysis. Binding reagents and trypsin were dialyzed into 20 mM sodium cacodylate (pH 6.9), 40 mM NaCl. The binding reagent was at a concentration of 1 mM and trypsin was used in the calorimeter cell at a concentration of 20 μM. The temperature was maintained at 20° C. 40 injections of 5 μL each were employed with a 240 second re-equilibrium time between injections.
# [2] = molecular target: T1, Bovine trypsin (Sigma Chemical Co.); test: ITC, binding agent injected into bovine trypsin in the cell, 20 C
# Experimental: as §1, §2
# T1 sequence (P00760 24-246): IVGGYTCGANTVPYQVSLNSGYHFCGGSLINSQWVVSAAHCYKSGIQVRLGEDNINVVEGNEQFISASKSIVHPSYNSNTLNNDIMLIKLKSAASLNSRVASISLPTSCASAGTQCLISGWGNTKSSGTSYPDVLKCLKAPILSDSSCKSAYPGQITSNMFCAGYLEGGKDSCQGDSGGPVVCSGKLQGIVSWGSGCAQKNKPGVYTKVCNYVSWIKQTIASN
Ka [1] [M⁻¹],Stoichiometry [1],ΔS [1] [cal mol^-1 K^-1],binding result [2],Binder
622000,1.02,-96.6,–,B1
–,–,–,no binding,B2
1.65e+06,0.99,-102,–,B3
